From a protein production outcome set (Wang et al. 2014)

Assay: label from the status in PepcDB records

Row | Sequence | protein production
1 | MLLRRRLFVLCILILTITAVQSFVHVLSGDGLSALDLALTAVFVPLAAWLAQSFCTLTAGALMIATQRFSWRRRRDELADIASGLVDSLPRVAIVMPVYNEDSGRVFAGVAAMRDELRALGVAKRFDVFILSDSTDGDNWLAEEEAWDSERHRVGDSPRLFYRRRFRNIKRKTGNIGQFVERHGAAYGYMVVLDADSLMSGEAIWVLTRRMDAERRTALIQAPPKLIMGDTPFSRMLQFAGDVYGPLSSAGLAFWAGGEGNYWGHNAIIRVDAFAACCGLPALPGRAPLGGDILSHDFVEAALLRRAGWKVRIAWDLGGSYEEPPPTMEDFMVRDRRWCQGNMQHGRILFARGLHGVSRSHLLIGIMSYVTSPLWLIFLILSGMQAWTLARAKAVYFQQGVPWATWPISREEEAAYLLAGTLGMLFLPKIWGLLLAIFHGPTRRAHGGGLALVGGFFLENLISALVAPIMMIRHSQFVVSILTGAKVDWKPQRRTADKGNLRVALASYKDVMVIGIAAVAFVLWAAPSLGVWLSPVLAGLLGAPFLAMALGDPDLGAALRRRGLLVIPEEITPPSVLTRMEERLAARPPTAEAPESRFSRVILDPGTNARHRALIQATGEAPTAPVEVMERAVGLAIHLGPEALGKDERKALLECPERLEQLHVACWARRLEDRGGVAPG | failed
2 | QGPVGTRIRLALGQDVEAANALMATTGDGVRIIPVLATAIEDGSASSAMLAGLGGIGTNAYHEAASHTFTDRPMNEALTTVSLTLVAADEEDRIVGVLSATAPGTLIDMAMSNGFTAEKAMALSLFVAKIHGLAVAEHARGQGIAAALLKRTWQVYQQLGYMLLYGSYEADRDLAAFYTRSGYTVHAPG | failed
3 | MSSSSTSGLPATLPFEELAEAIKGRRSDYGHISGLQLDRFAPAEAWSSLPYRPVFVGDTETGVLHGGVVTAMLDESCGMAVQLALDGTRAIATLDLRIDYQKPATPGLDIKAHSVCYRTTRSIAFVRSTAYQESEDDPVATATACFMIGANRTNMLADRRMDSRSIPTLEAPEDPDGPFARSPFARCLGIRVNDDGTLTMPFSPKIIGNPILPAIHGGMTGAFLETTAIIGVARELGAAAPPKPIGLTINYLRSGRALDSFANVSIVKQGRRIVAFEARAWQDDADKPIATAFGHFMLRPTPGNDEE | failed
4 | MSSSTDTAMAAAEPIWLQHLAEQNIADFIPHRAPMILIDKIISHQQDALETEVLITPQSAYFDEHRQAVPNYVGIEYMAQSIAALAGVEAKLRHDKIRVGFLLGSRKLALHTAQYELNRRYRTQVKRLYQEESGLAVFDCQIYLLPEAQAQQTPLLVAEANVNVFQPQDTQAYIASSQQA | failed
5 | GMTTRVLALDALVPIVAADNPVPRVSTPDLARALSGEISNWKELGGPDMPLVLHALARDISLEAALEARLGRPIAAEITHPDLASLAAAVARDPYALAITGQTARGAARVLPLTDSCGFPLVPSPLAVKSED | failed
6 | MTFKQVADDWLKQYANDVKVSSVRAREKAIQHAIERFNTKPIQTIKKHDYQRFVDDISAQYSKNYVDSIVASTNMIFKYAYDTRLIKAMPSEGIKRPKKKVSVELEHHHHHH | not failed
7 | ADVSSSDLATLRRLTNEFQAELATLGTRVDDLEARTSELENQQFSTTTKLNGEAIFSISGATGGEPEGNDAQITFNNRLRLNLTTSFTGKDALITGLQAYNFSAGKSITGTGNVAETLFPNDASILGDSMTNLAWEPQFAGLNPQNLQPSCGNNSLCLYKLLYVRPITDKLTAFIGPKAEVTDAFPAILPFASEGQGALSRFATLNPVLRMSGGTSGTGLASAAGFIYKPNDVIDWRALYGSVNAAIPGNEGFPGTPLGAGLFNGSFIAATQLTLHPNDKLDLGLNYAYSYHQINIAGTGLTGAETRILGDLPLTTPVRFNSFGATVNWRVSPKVNLTGYGAYIMTDQANSGSAYTNLSSWMAGLYFPDAFAKGNAAGILFGQPLYRVDAGNGASLSPANIGDRQTPYQLEAFYRHQINDHISITPGAFVIFNPEGDAQNETTSVFALRTTYTF | failed
8 | MLIGAIVAKDDTWLLWAIIIVWATVSLFLEQRYRWASTISGAIIALVGAMLLSNFKVIPMSAPVYDTVWDYIVPLSIPLLLFSSNILKIWKESRRLLVIFFVASIGTMIGTTVGFMILNQWIPYLNKIGAMMTGSYIGGGVNFAALSSKLETPSEMISSTVVADNSVMALYFMLLIALPSLPLIKKQFKSDYESKSTPESQQAYWEPKKIQLLDIAFSIASAVTLVAVSFKGADLIQQWMPQHNVVLTLIVSFLGDPYLLLTTLTLIVVAVWGDFFESLAGASEIGTFLIYIFFVVIGTPASFATIITTAPLLFIFVIIILVFNLGLSLIFGKIFGFKIEEILLASNATAGGPTTAAALAIGKGWTKVVGPILIIGTLGYVIGNYAGTLMYQLLTYLG | failed
9 | MSNFFKQTLASLLGTLLGLFLFAGAGTTGLLLLLFAAASSSNTGPVVKDKSVVVFDLSMNITDREPSAGEELQNRFSGVTQERMTLRNVIDSLEKAQRDKRIVAIYLDGSRGGNNLGFASLKEIRKALEEFRKSGKKVIAYGVAWDEKEYYLSSVADTIALNPLGGLEINGLSSQPMFLAGALQKYGIGVQVVRAGKFKGAVEPFLLDKLSPENREQTQKLLDDVWGEWRTTVGNSRKINPQKLQAIADNQSLLEATEAKTNGLVDQVAYNDQVVADLKKLTGSNKKDNTFTQISLRRYAQVPGQSLGLEKNSKNKIAVVYAEGDIVDGKGDDGQIGGDRFARIFNKIRQDENVKAVVLRINSPGGSATASEVMQREIRLTRESKPVVVSMGDYAASGGYWIATDSNRIFAEPNTITGSIGVFGVLFNGQKLANDNGITWDAVKTARYADSQTVARPKSPQEIAIYQRSVDRIYNMFVNKVAQGRKLPTQKVAEIAQGRVWSGVTAKQIGLVDEIGGLNAAIEYAAKAAKLGKDWQLREYPRESSFEERFFGGVVEEISTTLGIKKLDVKPNDPLTVQIQKIQQEISILQTMNDPQGVYARLPINLKIE | failed
10 | MLSALIWGPIFGAILIAIIPNPDHDCYSRKIALGIMVAMAGLSVLLAGQFNISDPQMQFVEYYPWLPSLGLNYHLGVDGLSLPLLLLNSALVVIAIFSTNTEIERPRFYYALLLLLSGGVAGAFLAQDLLLFFLFFELEIIPLYFLIAIWGGQRRGYAAMKFLLYTALSGFLVLVSFLGWFWLTKAPNFDYNPSLADALPVKTQMLLLLPLLLGLGIKIPIFPFHTWLPDAHVEASTPVSVLLAGVLLKLGTYGLLRFGLGLYLEAWVEFAPYLATLAAISALYGASCAIAQKDMKKVVAYSSIAHMGYILLAAAAATRLSVTAASAQMVSHGIISALLFLLVGVVYKKTGSRDVDKLQGLLTPERGLPITGSLMILGVMASAGIPGMVGFIAEFLVFRGSFPIFPTQTLLCLIGSGLTAVYFLLMINRVFFGRLTMELSHLPKVRWQEQIPAIALAVVIIALGIQPHWLTQWSEPQTAVLLTGHPDLVSVPAPPRIEIEVKELGEV | failed
11 | MLEQGTISIHTENIFPIIKKSLYSDHQIFLRELVSNAVDAIQKLKMVSRAGEYAGVVDEPEIQLAIDKDKKTLSITDNGIGMTAEEVKKYINQVAFSSAEEFIHKYQGKSDQPIIGHFGLGFYSSFMVAQKVEIDTLSYQEGAQAVHWSCDGSPEFTLEESSRTTIGTTITLTLLPDEEEYLESARVKNLVKTYCDFMPVPIKLDGEVLNRQKAPWRESPSNLTKEDYLEFYRYLYPFQEEPLLWVHLNTDYPFIINGILYFPKMRPDVDVTKGQIKLFCNQVFVSDNCEEIIPQFLVPMRGVIDSTDIPLNVSRSALQGDRTVRKIGDYIAKKVGDRLKELYRDDREQYISAWKDLSTFVKFGVLNDEKFKKQVEDIIIFRSTVKWEQPAETPAVEVQSQEGDVWQDITPSPDSPTPGLPYTTLKEYLERNKERHENRVFYSTDEATQATYIELHKNQGLEVLFLDSFIDTHFINFLEQEYQDVKFTRVDSDLDNTLLEQDKAGEIVDPTTNKTKSEIIKELFEKSLNKPKVNIRTEALKSDDPQGTPPAIVLLPEFLRRMREMTAMMQQQNADFPEDHILLVNTAHPLIQNLVNLNQGAIIQGDGESTTNPLVNLICQHVYDLALMSQKGFDAEGMKSFVERSNDVLTKLTQQAKN | failed
12 | MAGAITHDHAAAAQGRQGGPLIVTEDVELLDDLLRLCAAAGARPEVHHTVPDGRGTWEAAPLVLVGDDAARRVRGAARRRGVVLVGRDQDDSGVWRRAVEIGADHVLLLPDGEQWLVDRIADVAEGVGRPALTVGVIGGRGGAGASTLACALAVTSARQGRRTLLVDADPLGGGLDVLLGGETAEGLRWPAFAASRGRVGGGALEESLPELHALRVLSWDRGDAVAVPPQAVRAVLAAARRRGGAVVVDLPRRVDEGAAEALAQVDLGVLVVPAELRAIAAAARVASAAGMVLGDLRVAVRGPYAPGLDDREVARLLGLPLLGEVPAEPPVPDGGVPPGGAARGPLARFCAVFWDRALVEAGGVLEHHHHHH | failed
13 | MVQSQSLSTLTICGSVKVSSLLRNRLNSVKASSLIGDRCVSCQFLRKSPSFRSHWKSLKQRNLLRVEARWPFQGGGEQGLDPSSERSESANEDILIFFFQLDLATRVQVKTKCRVFISFKMVANGFDVLQY | failed
14 | MGASTFWIITIVFCIAIYFLDKFLRKKLNMPKGGFWGYKKHVNSLHKKLEIGLLFIYLITSFIFIFKFESINIAYVIFTYLGGTLILRALMEWKYDRESKEYIFSVIGVFTFIFMTSILFYFFPPAV | failed
15 | MKIAYLGPSGSFTHNVALHAFPAADLLPFENITEVIKAYESKQVCFAIVPVENSIEGSVHETFDYLFHQAKIEAVAEIILPIKQQLMSTSADKTIETIFSHPQAIAQGKQYIRSHYPDVKIEMTASTAYAARFVAEHPEENYAAIAPYAAADEYHLSIIAKDIQEIDENYTRFWVLGDETP | failed
16 | MACFMALVLARFGFGFCMLLAALVLLAAATLLATRLVGWAVRAFALERSQALASGVAIFILVALALWGCHAVGEVLYGAIGATALVGGAPHWLAGNSHVSAAALMGATTAAAMLAGGPAFWRWLRARRAAAAEQPAPRKAAPPKGAKPAARAAKAAAKTQIAPRGQRIPWLGWTAFFLLFIGAAVLAFAYIVAPIEAGASGLRLEHATRARPVYLAGLTLLGGGAFFLLAWLSRRRLPGD | failed
17 | MNPADWIDTGAVPPRPLPAKVDAALAYLAEALGHPVYAHWTLTRIKRRYGSLADAKAAQPTVLKLLLTHDGAVEYWERGRLRTAPADQAPSPDAVLARLLHTHRRRFRSADASANAGAVPATAQTTGLVANPWLAAHSHADHAWLARTGRFAQPQAAANTLGAVDDAQALALFLRDRTGRSSHTLRAYGAELRRLMRWCGTHGFGPFSDLTRQQLLAYRHTLEHGSSGTANTTPPLSEATRTRALAVVASLYGYWYATGYLHANPAAGLSAGSRARSGFVPTRLIPSALLDACDAWLDANSAGDLLPALRQRAIWALYRYAGVRLAELAWSAETALPRLEAEAPGRWTLYVCGKGRKVRAIPLPAQCMVVLRAYRRARGLPPEPSAHETLPVIHGSKGEALQQTGLYREIKAIFAVVADGLQAREPAKAMLLRAASPHWLRHAYARTLVVDHQVPLPAAQALLGHASVQTTAAYAKTDLTQLRAFVDATFADDVP | failed
18 | MTVLDKVNDPTDIKALTPLELEELATNVRDAILNRVSQYPGGHLGPNLGVVEMTIALHKVFNSPVDKLIWDVSHQSYPHKVLTGRKEFFTDKDKFSGTTGYTDPEENEHDFIRVGHTSTSIATAMGYALARDVQGKKENIVAIIGDGALSGGLAFEGLDGAGTLNGNLIIIVNDNEMAITENHGGIYQHLADLRASKGTSANNLFKSFGLDYRYLEEGNDIQSLIVLFESVKDINRPIVLHIHIEKGHGYKPAVENKEGMHQVFAPFDIATGQPVNSSTNIVRSYNNVFLDFMEEKLAKGDNLIAINAAIPMFFGLSQFAKNHPKNYVDGGIAEQYTVTLGGAIAAAGTRAIIFQNATFLQRAYDQLNHDLALNKEPAIVIISNSQIGGTNDTHQGSFVYSQTSNIPNVIDLAATSEEDLFAMLNWAYNQHEHPVFIHLPEHTLENRPTKITDFSKPQYEVVKSGEKVAILGLGAMLEKAENVAEELEKSGFNPTVVNPFFANLLDVAALDKLSETHGLFVTIEDGTKDGGFGQKVATYLASKGIKTLVYGADTEFIDAVPKEELYNRYHIRPELMATDIIEATKESKGPNFFKKIFSKLEHHHHHH | not failed
